Assay results taken from the DeepSol protein solubility set.

Test: soluble on expression in E. coli; label from the status in PepcDB or PDB records

Sequence | soluble on expression in E. coli
MGSDKIHHHHHHMKIDELIALAAEQPTRISRRSGVSRSTLKRVGDGTSEPTLSTLREVALALGLDIKVAAHHACDPFAAAAARTLIDASVPENPHNQEILAWLHRFERWNINDPLTLVSEAGTLQGITHRQDAQFVKLNPRGIAELPELFQQHKTKWALSGAAAATVIMGQIVLGNSIVWHEPAHDLDVSALGTIVDVAEDADLILLPATVTELVGSYTQDRLNFVAPVQLVIDLHSLHMFEEADYLTSGWR | not soluble
MALPKFELLSLADNTVGWGPLASSSSADEPVPFQQFNKADRIGRVADWIGVDRFYRRGNERYNERVYGSAANAGSQFDYIHGMDEHNFQLVDTSKPMARNPQRNFRVRQMHLRKMMQKENEKREMVNQSTNLRMKRSIAKEQQRAFKMWQRRGGNARQGQRGQGGRFGGDRPKERLPSVQVRPEWVVLEEMNLSAFSKLALPNIPGGDDIGDHQYGSLQYYDKTIDRVSVKNSIPLQRCAGVFYNVTTTEDPVIQELAQGGAGNVFGTDIILATLMTAPRSVYSWDIVAYRVGDKLFFDKRNTRDILNPVETLTVSETSAEPPSFDGNGINNAKDLATEAFYINQNFRRQVVKRNDAGFTFKNARAPFEDEETGESGTAYKYRKWNLGNGVDGKPVELVCRTELDGVIHGLGNETQTLTIKAFNEWDSTQSGGVDWRTKLDVQKGAVMATEIKNNSAKVAKWTLQALLAGSDTMKLGYVSRNNARSTQNHSILLTQYVKPTEFASNIALNMDNCWGILRCVIDSCMKQKPGKYLLMKDPQSPVIRLYSLPEGTFESERESSDEENSDDDQ | not soluble
MEKMKNLDGKVALVTGASRGIGRAIAMRLANDGALVAIHYGRNKQAADETIREIESNEGKAFLIEADLNSIDGVKKLVEQLKNELQIRVGTSEIDILVNNAGIGTQGTIENTTEEIFDEIMAVNIKAPFFLIQQTLPLLRAEGRVINISSAEVRLGFTGSIAYGLSKGALNTMTLPLAKHLGERGITVNTIMPGYTKTDINAKLLDDPEIRNFAANSSVFGRIGQVEDIADAVAFLAASDSRWVTGQIIDVSGGFCL | not soluble
MSLKRLNLYIFGENNILDILIKNGSVFSGNNNEPESNNIGIKKSKIDFIGKESPESKKVIDAKDYIVTPGFIDIHTHSDISFLVDPEADSKLTQGVTFEFLGNCGMSFCAPLNSASKQTLSDRLSKYNSDVKIDWNDFTDWLNKIEKNIPSINVAAQLGHGVLRSYVMGMKAVSATPEDIEAMKNIVRSSIDQGVLGFSTGLWYAPGSYSHTEEIVEITKVVAEHDLLYSSHIRSESDDASGLFPAHAEAIEIGRRTGAKIQISHVKSVGPQFWGRGKELLEGMYKAREEGIDVAGDQYPYEWSSTPTSGCMFPRWSLEGGREKTLERLKDKNIREAIKSETINYINRFHGSAGCVLAEFSNDKKLEGLNLSEISEEFSCSPEEAAMRLYEISEGSFVLHSMEEQDVDTIGMSDIIAVASDGNSLRNTGPLSNGKPHPRSYGTNTRFIEDMVVNKKKVSISNAIYRMTSLPASRIGLKNRGEIKKGYFADINIFKPEELREKATYVDPHQYSTGMKWVLVNGKIALKDGKKIEGRFGKVVRSKEGEGHHHHHH | soluble
MLTLLGKIAHFREPLSRQLSLSDTNVTPQISRCAKLNLSVKQKKLLRQSFNAMNSGGTFLKLMEKIFRRLETKCPDMRSIFLTTAFVNSLSRERQTPPLVKTEYDHCKCMVGIFERLIENLENINEQLTMIRHYGEKHAQMAESGFTGAMIEQFGEISVFVIGSQDVVKFNHETVKAWRLLLACVTDEMKVGFDRMSRINGRRNSCNPPSTVPSGN | not soluble
MEGVMGQVEKRPISTIVFIVAMQKEAQPLINRLRLVEEVNTPFPKEVTWIMFKGMYKDLNINIVCPGKDSTLGVESVGTVPASLVTYASILAIQPDLIINAGTAGGFKAKGACISDVYVVSTVAFHDRRIPVPVLDIYGVGMRNTFPTPNLIKELNLKVGRLSTGDSMDMSPHDEESITANDATVKDMEGAAVAYVADIFKVPTILIKGVTDIVDGNRPTSEEFLENLAAVTAKLDESLTKVIDFISGKCLSDL | soluble
MEKSIKIGFIGLGAMGKPMAINLLKEGVTVYAFDLMEANVAAVVAQGAQACENNQKVAAASDIIFTSLPNAGIVETVMNGPGGVLSACKAGTVIVDMSSVSPSSTLKMAKVAAEKGIDYVDAPVSGGTKGAEAGTLTIMVGASEAVFEKIQPVLSVIGKDIYHVGDTGAGDAVKIVNNLLLGCNMASLAEALVLGVKCGLKPETMQEIIGKSSGRSYAMEAKMEKFIMSGDFAGGFAMDLQHKDLGLALEAGKEGNVPLPMTAMATQIFEGGRAMGLGREDMSAVIKVWEQMTGVSVSGGQ | soluble
SQAHVVDFELQYREAIDCPCRTFGVDRSIGQYLHILVCIEKIAVYQLHQIGSVLIGFVDTAFDYQRISRIDVGITYNIFEMPLGIIDPILQKQIMLDRLRP | not soluble
MGSDKIHHHHHHMMNKPAPRELEVIRSTYITPHMLRITLGGAGLAGFPADQESAYIKLLFPQAGERPLMRTYTIRQQRDDEIDVDFVLHDTDGPASSWAKTAQVGELIQIGGPGLKKLINFEADWFLLAGDMTALPAISVNLAKLPNNAVGYAVIEVLSEADIQPLVHPEHVELHWVINPEADPEGRPLVERIAQLPWLAGEPAVWIACEFNSMRALRRHFKQAHALPKSHFYTSSYWKIGCNEGEHKLVKQEDEQLENGASV | not soluble
MGSDKIHHHHHHMQSALWVSKTGLAAQDTKMTTIANNLANVNTTGFKRDRVAFNDLFYQVQRQPGGQVDELNQLPSGLQLGTGTRVAGTQKVFTTGDVHNTSQQLDLAIEGNGFFQVEEPNGDLAYTRDGQFYRSSEGMMVTSQGLPLVPNIVIPEDSTNITIATDGIVMATIAGDAEPQELGQITLINFTNPAGLEARGNNLYRETAASGVAVEGVAGDQALGGLRQGSLEGSNVNVVEEMVEMISTQRAYEMNAKVVSASDDMLKFLNQSV | not soluble
MGSDKIHHHHHHMQFTDAVTVAGTRRTADGYLVATARAVRTGIQLYAGHEVGKPDQEVVRVYRAADQVFSTESLQSFSHAPITVDHPDEEVSAENWKALSVGEVSTAAKQDGQWVMLPLILKDAAAIKSVMDGKRELSAGYTCDLDFTPGVTADGEPYDAQQRGIRINHLALVDRARAGSKARIGDDGGPWGAAPISTTDKETITMSDALRTVVVDGLSVTTTDQGAQAISKLLKDLESSAAKLVDAQTRYQAALAAKDADLAKAHAERDAANAKVLSDADLDKRVAARADLITKAKAIAKDVKTDGLSDSAIRKAAVTAALGDAAVRDKADAYIDARFDILVEDAAKKSGGADPFRQVVQNGLQTADNTNGAAAAHNAMVRDMSSAWMMKKEA | not soluble
MSLEDGYKVEVGKNAYLPCSYTLPTSGTLVPMCWGKGFCPWSQCTNELLRTDERNVTYQKSSRYQLKGDLNKGDVSLIIKNVTLDDHGTYCCRIQFPGLMNDKKLELKLDIKAALVPR | soluble
GPGSMHLDEMLKEIQDMQEKNWTAVERTDIILAKLCAFLDKLAHSLRFMATSQPSCGAGAVCSAGVAVTTHTHGESARGLRISRDIRTAAAGRPFETEVDD | soluble
MAHHHHHHMTSTTQPKWTRLPIRTRPHRNPLAENSDNHPDCPAELQEQCTTLFPGMDNPVITLVDVGCAFGGMLFSLAPDFPDMCMLGLEIRPKVVEFAQNKVMKLREGAATDGTSHHYRNVWFEQLNVMKFGSNCFNKGQLQALFFCYPDPHWKRKNVRRRIISPGLVQEYAYWLKVGGFLFTVSDVEELERWMVTCLDGCPLFRQLSQEELAGNEMVRKMLDYAANSSEDAQRTTRKGLQKHYAVHVRVP | not soluble
MRQGGIYQTKDANKGPVTVPPLRTKTPPPPPPPVRRHEIYEQHKRYTSAPNLQSAVIRIQDDKPRSIMKRNDLVRREQMLYPTVDTQVVKSVVKKPTVTETVQRFEETRRTEEVERRVQRREKKERRSRHHSSSRHHSGWEGHTGGYQEYRQGAITSSLPRRQIIREADRAMTEEEMNKVVREAYAAADEARKDSRHRSSSLSRGGHGGGGQETYYRQETTRRQQHNNYDDNFNRGIAHARYGSLSDSLRRGELQYVPNGEVRQSFYRDGSNGGQRMHKSYSTRDVFTGDGYDDRRSVSSFRRGSQQQVSPFVEFPPTLPRRGGGGDYRREEDAYFRPVSKSRSYADWDDAGRAGMGREVRRYDDDMSRLEAEFRDSLLMPMPAGNMNERDHRTEQLPGGYETFNKERHANSGRRSGRDGKPVDFNEATQEYNYKREQTLNDDRRRR | not soluble
